Values of other authors in patent publication US20230312927A1, “POLY(SARCOSINE) POLYMER EXCIPIENTS” (CALUSA BIO, LLC, priority 2021, published 2023).

Test system: anti-drug antibodies (ADAs)
Conditions: share of anti-drug antibodies that are neutralizing; van Schie et al. Ann. Rheum. Dis. 2015

Substance	ADAs shown to be neutralizing [%]
adalimumab [Humira]	97
infliximab [Remicade]	90
